Assay results as given in patent US20240209044.

T1: ZAP, zeta activating peptide, the PKCzeta uORF-encoded peptide
T1 chain: MGPREARLQVHQLQTAGP

T2: ZIP, zeta inhibitory peptide, the pseudo-substrate peptide of the PKCzeta regulatory domain
T2 chain: SIYRRGARRWRKL

B1: PKCepsilon, HA-tagged, immunoprecipitated from HEK293T lysate (protein)
chain: MVVFNGLLKIKICEAVSLKPTAWSLRHAVGPRPQTFLLDPYIALNVDDSRIGQTATKQKTNSPAWHDEFVTDVCNGRKIELAVFHDAPIGYDDFVANCTIQFEELLQNGSRHFEDWIDLEPEGRVYVIIDLSGSSGEAPKDNEERVFRERMRPRKRQGAVRRRVHQVNGHKFMATYLRQPTYCSHCRDFIWGVIGKQGYQCQVCTCVVHKRCHELIITKCAGLKKQETPDQVGSQRFSVNMPHKFGIHNYKVPTFCDHCGSLLWGLLRQGLQCKVCKMNVHRRCETNVAPNCGVDARGIAKVLADLGVTPDKITNSGQRRKKLIAGAESPQPASGSSPSEEDRSKSAPTSPCDQEIKELENNIRKALSFDNRGEEHRAASSPDGQLMSPGENGEVRQGQAKRLGLDEFNFIKVLGKGSFGKVMLAELKGKDEVYAVKVLKKDVILQDDDVDCTMTEKRILALARKHPYLTQLYCCFQTKDRLFFVMEYVNGGDLMFQIQRSRKFDEPRSRFYAAEVTSALMFLHQHGVIYRDLKLDNILLDAEGHCKLADFGMCKEGILNGVTTTTFCGTPDYIAPEILQELEYGPSVDWWALGVLMYEMMAGQPPFEADNEDDLFESILHDDVLYPVWLSKEAVSILKAFMTKNPHKRLGCVASQNGEDAIKQHPFFKEIDWVLLEQKKIKPPFKPRIKTKRDVNNFDQDFTREEPVLTLVDEAIVKQINQEEFKGFSYFGEDLMP
B2: PKCtheta, HA-tagged, immunoprecipitated from HEK293T lysate (protein)
chain: MSPFLRIGLSNFDCGSCQSCQGEAVNPYCAVLVKEYVESENGQMYIQKKPTMYPPWDSTFDAHINKGRVMQIIVKGKNVDLISETTVELYSLAERCRKNNGKTEIWLELKPQGRMLMNARYFLEMSDTKDMNEFETEGFFALHQRRGAIKQAKVHHVKCHEFTATFFPQPTFCSVCHEFVWGLNKQGYQCRQCNAAIHKKCIDKVIAKCTGSAINSRETMFHKERFKIDMPHRFKVYNYKSPTFCEHCGTLLWGLARQGLKCDACGMNVHHRCQTKVANLCGINQKLMAEALAMIESTQQARCLRDTEQIFREGPVEIGLPCSIKNEARPPCLPTPGKREPQGISWESPLDEVDKMCHLPEPELNKERPSLQIKLKIEDFILHKMLGKGSFGKVFLAEFKKTNQFFAIKALKKDVVLMDDDVECTMVEKRVLSLAWEHPFLTHMFCTFQTKENLFFVMEYLNGGDLMYHIQSCHKFDLSRATFYAAEIILGLQFLHSKGIVYRDLKLDNILLDKDGHIKIADFGMCKENMLGDAKTNTFCGTPDYIAPEILLGQKYNHSVDWWSFGVLLYEMLIGQSPFHGQDEEELFHSIRMDNPFYPRWLEKEAKDLLVKLFVREPEKRLGVRGDIRQHPLFREINWEELERKEIDPPFRPKVKSPFDCSNFDKEFLNEKPRLSFADRALINSMDQNMFRNFSFMNPGMERLIS
B3: PKCzeta, HA-tagged, immunoprecipitated from HEK293T lysate (protein)
chain: MPSRTGPKMEGSGGRVRLKAHYGGDIFITSVDAATTFEELCEEVRDMCRLHQQHPLTLKWVDSEGDPCTVSSQMELEEAFRLARQCRDEGLIIHVFPSTPEQPGLPCPGEDKSIYRRGARRWRKLYRANGHLFQAKRFNRRAYCGQCSERIWGLARQGYRCINCKLLVHKRCHGLVPLTCRKHMDSVMPSQEPPVDDKNEDADLPSEETDGIAYISSSRKHDSIKDDSEDLKPVIDGMDGIKISQGLGLQDFDLIRVIGRGSYAKVLLVRLKKNDQIYAMKVVKKELVHDDEDIDWVQTEKHVFEQASSNPFLVGLHSCFQTTSRLFLVIEYVNGGDLMFHMQRQRKLPEEHARFYAAEICIALNFLHERGIIYRDLKLDNVLLDADGHIKLTDYGMCKEGLGPGDTTSTFCGTPNYIAPEILRGEEYGFSVDWWALGVLMFEMMAGRSPFDIITDNPDMNTEDYLFQVILEKPIRIPRFLSVKASHVLKGFLNKDPKERLGCRPQTGFSDIKSHAFFRSIDWDLLEKKQALPPFQPQITDDYGLDNFDTQFTSEPVQLTPDDEDAIKRIDQSEFEGFEYINPLLLSTEESV

Columns and labels:
[1] = target: T1, ZAP, zeta activating peptide, the …
[2] = target: T2, ZIP, zeta inhibitory peptide, the …

Row | Protein | phosphorylation of MBP by PKC isoforms (32P-γATP in vitro kinase assay) [1] | PKCzeta phosphorylation of MBP (32P-γATP in vitro kinase assay) [1] | kinase activity (phosphorylation of MBP, 32P-γ-ATP in vitro kinase assay, dose series of peptide) [1] | kinase activity (phosphorylation of MBP, 32P-γ-ATP in vitro kinase assay, dose series of peptide) [2]
1 | B1 | enhanced the phosphorylation of PKC isoforms of the novel PKC sub-family of PKCzeta, PKCdelta and PKCepsilon | – | – | –
2 | B2 | the peptide had no effect on the phosphorylation of MBP by the PKC isoforms PKCeta (PKCη), PKCtheta (PKCθ), PKCgamma (PKCγ), and PKCalpha (PKCα) | – | – | –
3 | B3 | enhanced the phosphorylation of PKC isoforms of the novel PKC sub-family of PKCzeta, PKCdelta and PKCepsilon | did not inhibit PKCzeta phosphorylation of MBP, rather significantly increased the phosphorylation on MBP | the ZAP peptide activates the kinase activity of both PKCzeta and PKMzeta | the known PS ZIP peptide inhibits their activity
